The test system of data set [1] is OmpL1-PhoA fusion protein [phosphatase: P00634].
Data set [2] has as its target OmpL1, 31 kD outer membrane protein of Leptospira alstoni (native protein) (Leptospira alstoni serovar grippotyphosa). As to the kind of experiment: immunoelectron microscopy of intact L. alstoni, protein G-colloidal gold (control serum).

Sequence of OmpL1-PhoA fusion protein [phosphatase: P00634] (P00634 27-471): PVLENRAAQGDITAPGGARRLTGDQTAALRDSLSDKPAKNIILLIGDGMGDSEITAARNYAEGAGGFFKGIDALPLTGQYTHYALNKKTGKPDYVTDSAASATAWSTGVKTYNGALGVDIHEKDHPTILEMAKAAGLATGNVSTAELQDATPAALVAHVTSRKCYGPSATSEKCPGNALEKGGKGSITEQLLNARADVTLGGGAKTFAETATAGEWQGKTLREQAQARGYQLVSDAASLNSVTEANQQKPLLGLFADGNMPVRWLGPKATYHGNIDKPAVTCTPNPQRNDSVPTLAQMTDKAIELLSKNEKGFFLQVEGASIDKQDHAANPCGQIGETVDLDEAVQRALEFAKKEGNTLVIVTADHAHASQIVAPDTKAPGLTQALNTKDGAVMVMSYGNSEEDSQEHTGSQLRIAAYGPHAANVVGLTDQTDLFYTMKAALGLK

Take “E. coli leader peptidase 1 (strain IT41, temperature sensitive mutation)”: the “cleavage of the OmpL1-PhoA fusion protein in E. coli IT41” value in data set [1] is “Cleavage of the OmpL1-PhoA fusion protein was demonstrated at the permissive temperature of 32° C., but not at the restrictive temperature of 37 °C”. In data set [2], “preimmune serum from the same rabbit as the anti-OmpL1 antiserum (antibody)” showed a gold particles per twenty organisms (particles per twenty organisms) of 1.

(Values after US6685945.)
